Consider one variant from IntAct's records for PubMed 18927509.

B1: Cell cycle serine/threonine-protein kinase CDC5/MSD2 (Saccharomyces cerevisiae), P32562 (parent)
chain: MSLGPLKAINDKQLNTRSKLVHTPIKGNTADLVGKENHFKQTKRLDPNNDHHHQPAQKKKREKLSALCKTPPSLIKTRGKDYHRGHFLGEGGFARCFQIKDDSGEIFAAKTVAKASIKSEKTRKKLLSEIQIHKSMSHPNIVQFIDCFEDDSNVYILLEICPNGSLMELLKRRKVLTEPEVRFFTTQICGAIKYMHSRRVIHRDLKLGNIFFDSNYNLKIGDFGLAAVLANESERKYTICGTPNYIAPEVLMGKHSGHSFEVDIWSLGVMLYALLIGKPPFQARDVNTIYERIKCRDFSFPRDKPISDEGKILIRDILSLDPIERPSLTEIMDYVWFRGTFPPSIPSTVMSEAPNFEDIPEEQSLVNFKDCMEKSLLLESMSSDKIQRQKRDYISSIKSSIDKLEEYHQNRPFLPHSLSPGGTKQKYKEVVDIEAQRRLNDLAREARIRRAQQAVLRKELIATSTNVIKSEISLRILASECHLTLNGIVEAEAQYKMGGLPKSRLPKIKHPMIVTKWVDYSNKHGFSYQLSTEDIGVLFNNGTTVLRLADAEEFWYISYDDREGWVASHYLLSEKPRELSRHLEVVDFFAKYMKANLSRVSTFGREEYHKDDVFLRRYTRYKPFVMFELSDGTFQFNFKDHHKMAISDGGKLVTYISPSHESTTYPLVEVLKYGEIPGYPESNFREKLTLIKEGLKQKSTIVTVD
partner: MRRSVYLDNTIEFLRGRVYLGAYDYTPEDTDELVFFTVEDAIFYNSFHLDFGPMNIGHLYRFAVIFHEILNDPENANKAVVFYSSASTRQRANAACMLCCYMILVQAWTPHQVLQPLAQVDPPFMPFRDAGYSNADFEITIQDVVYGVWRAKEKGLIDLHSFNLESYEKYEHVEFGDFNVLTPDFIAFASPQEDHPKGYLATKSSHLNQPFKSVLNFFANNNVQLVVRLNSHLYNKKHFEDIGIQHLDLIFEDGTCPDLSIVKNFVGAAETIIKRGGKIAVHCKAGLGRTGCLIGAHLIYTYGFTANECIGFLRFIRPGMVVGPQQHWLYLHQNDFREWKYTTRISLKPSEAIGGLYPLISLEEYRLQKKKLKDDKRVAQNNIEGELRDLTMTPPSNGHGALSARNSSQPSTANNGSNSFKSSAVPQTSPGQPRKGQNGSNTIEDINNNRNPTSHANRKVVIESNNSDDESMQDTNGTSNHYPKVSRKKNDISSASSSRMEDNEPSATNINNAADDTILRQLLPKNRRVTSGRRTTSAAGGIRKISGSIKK

Variants of B1 are the subject of this assay. As to conditions: with cdc14_yeast CDC14, Q00684.
Consider H641A;K643M, for which the “effect of a mutation on the interaction” value is “decreasing interaction”.
